Several values for one entry are separate records, joined by “and”; a condition that tells them apart may be missing. Equal values may be shown once. Read-outs that look alike come from different tables or passages of the source.
How the values were obtained:
[1] = molecular target: kLANA_(k1109E, A1121E) (KSHV); experiment: SEC
[2] = molecular target: kLANA_(k1109E, A1121E) (KSHV); experiment: SEC; remark: listed apart in the source
[3] = molecular target: mLANA DBD (Murine gammaherpesvirus 68 (MHV-68)) (UniProt O41974); experiment: ITC
[4] = molecular target: MHV-68 LANA DNA binding domain, mLANA_(124–314) (MHV-68); experiment: SAXS
[5] = molecular target: MHV-68 LANA DNA binding domain, mLANA_(124–314) (MHV-68); experiment: SEC
[6] = molecular target: MHV-68 LANA DNA binding domain, mLANA_(124–314) (MHV-68); experiment: SAXS; remark: listed apart in the source
[7] = molecular target: KSHV LANA DNA binding domain, kLANA_(1008–1150) (KSHV); experiment: SAXS
[8] = molecular target: KSHV LANA DNA binding domain, kLANA_(1008–1150) (KSHV); experiment: SEC
[9] = molecular target: KSHV LANA DNA binding domain, kLANA_(1019–1150) (KSHV); experiment: SEC; gel filtration in the presence of 1 M NaCl
[10] = molecular target: KSHV LANA DNA binding domain, kLANA_(1019–1150) (KSHV); experiment: crystal structure
[11] = molecular target: kLANA_(1008–1150 (K1109E)) (KSHV); experiment: SEC
[12] = molecular target: kLANA_(1008–1150 (K1109E)) (KSHV); experiment: SAXS

## kLANA_(k1109E, A1121E) (domain or fragment)
[1]
  stoichiometry N: 2
[2]
  stoichiometry N: 4

## kLBS1-2
[3]
  Kd: 71.7 nM

## MHV-68 LANA DNA binding domain, mLANA_(124–314) (domain or fragment)
[4]
  stoichiometry N: 8
[5]
  stoichiometry N: 2 and 4
[6]
  stoichiometry N: 4

## KSHV LANA DNA binding domain, kLANA_(1008–1150) (domain or fragment)
[7]
  percent of the mixture present as octamer with two kLBS1–2 DNA: 74%
  stoichiometry N: 8 and 4
[8]
  stoichiometry N: 2 and 4

## KSHV LANA DNA binding domain, kLANA_(1019–1150) (domain or fragment)
[9]
  stoichiometry N: 2
[10]
  stoichiometry N: 2 and 4

## kLANA_(1008–1150 (K1109E)) (domain or fragment)
[11]
  stoichiometry N: 2 and 4
[12]
  percent of species present as bent tetramer: 20%
  percent of species present as dimer: < 80%
  stoichiometry N: 2 and 4

— article PMC4787769
